Patent US20230047413A1 (Janssen / Centocor, published 2023)
Where a chain is given by its changes, count along the chain named. Each block holds one binder with its values, some of them ahead of it.

Columns and labels:
[1] = molecular target: T1, tau phospho-peptide of the direct ELISA of Example 11; test: direct ELISA, peptide coated
T1 construct: also called pT217 peptide; pT212/pT217 peptide
Protocol: (§1) Binding to tau phospho-peptide was analysed by ELISA where peptide (10 ng/mL) was directly coated to the plate overnight. […] After incubation with antibodies, plates were washed and 50 μL per well of HRPO labelled anti-Fab antibody (Jackson Immunoresearch laboratories) (diluted 1:10000 in blocking buffer). After another washing step detection was performed with “One step” TMB (Thermo Scientific) according to the manufacturers' instructions. Plates were analysed in EnVision® 2102 Multilabel Reader (Perkin Elmer, Waltham, Mass., USA). Binding curves were generated using GraphPad Prism7.0 software.

[2] = molecular target: T2, PHF-tau (paired helical filament tau isolated from Alzheimer's disease brain) (human, UniProt P10636-8 2-441, limits assumed, hyper-phosphorylated, aggregated; sites not listed for the preparation); test: SPR ProteOn, PHF-tau capture-coupled via HT7, 1:1 model
T2 construct: also called enriched PHF-tau; ePHF-tau
T2 sequence (P10636 other isoform, or with tags, fused parts or gaps limits assumed): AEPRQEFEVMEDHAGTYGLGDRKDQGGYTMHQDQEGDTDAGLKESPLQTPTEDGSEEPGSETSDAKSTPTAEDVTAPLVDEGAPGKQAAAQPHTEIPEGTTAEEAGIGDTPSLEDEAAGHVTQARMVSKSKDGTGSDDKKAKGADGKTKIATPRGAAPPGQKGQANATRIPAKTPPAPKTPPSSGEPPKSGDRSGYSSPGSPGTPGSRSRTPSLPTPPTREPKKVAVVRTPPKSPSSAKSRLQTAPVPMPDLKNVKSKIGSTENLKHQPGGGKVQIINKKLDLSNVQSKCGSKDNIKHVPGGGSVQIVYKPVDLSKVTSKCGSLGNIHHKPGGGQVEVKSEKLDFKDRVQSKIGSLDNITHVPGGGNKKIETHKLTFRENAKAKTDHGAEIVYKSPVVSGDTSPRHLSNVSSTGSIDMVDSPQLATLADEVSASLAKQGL
Protocol: (§2) A subset of HFA-PT3 monoclonal antibodies was tested for binding to PHF-tau isolated from Alzheimer's disease brain. All interactions were studied at 25° C. using PBS pH 7.4, supplemented with 3 mM EDTA, and 0.005% Tween 20 as running or system buffer. HT7 (Pierce, catalog #MN1000), a mouse anti-tau antibody, was used as a positive control.
(§3) The interaction of anti-tau monoclonal antibodies with PHF-tau was analyzed by ProteOn using a biosensor surface prepared by capture-coupling PHF-tau using HT7 as the capture reagent. PHF-tau was prepared by 2-times centrifugation at 5000×g at 5° C. for 10 min; the supernatant from the second centrifugation was then diluted 1/40 in running buffer. To prepare the chip, HT7 was covalently immobilized to the surface of a GLC (ProteOn) sensor chip using the manufacturer's instructions for amine-coupling chemistry (˜5000 response units (RU)). The coupling buffer was 10 mM sodium acetate, pH 4.5. After HT7 immobilization, PHF-tau was injected and captured (˜300 RU) by HT7. After capture, PHF-tau was covalently immobilized to the sensor chip by activation of the chip using the manufacturer's instructions for amine-coupling chemistry. Remaining reactive sites were blocked by the injection of ethanolamine. After preparation and stabilization of the PHF-tau-modified surface and reference surface (containing no antigen), the anti-tau antibodies were diluted in the running buffer and injected in solution (0.12-75 nM in 5-fold dilutions). The association was monitored for 3 minutes (120 μL injected at 40 μL/min). The dissociation was monitored for 15 minutes. Regeneration of the sensor surface was performed using 10 mM Gly pH 2.0. The data for monoclonal antibodies were fit using a bivalent binding model where the apparent affinity (KD) was reported as the ratio of koff/kₒₙ. A Langmuir 1:1 binding model was used for kinetics analysis of Fabs.

[3] = molecular target: T1, tau phospho-peptide of the direct ELISA …; test: direct ELISA on plate-coated tau phospho-peptide, Fabs
Protocol: as §1

Peptide-2 [4] = molecular target: T3, Peptide-2 (human, phosphothreonine 212, phosphothreonine 217 (tau 2N4R numbering); short chain biotin (SCBiot) and dPEG4 at the N-terminus; amide at the C-terminus); test: SPR ProteOn, peptide captured, Fab as analyte
T3 construct: also called pT212/pT217-tau peptide (Peptide-2)
T3 sequence (peptide, as listed by the source): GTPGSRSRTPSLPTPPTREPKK
Protocol: (§4) A subset of HFA-PT3 monoclonal antibody variants, selected based on biophysical characterization and ELISA binding to PHF, were analyzed by Surface Plasmon Resonance (SPR) with a ProteOn XPR36 for binding to the following phosphopeptides: pT212/pT217-tau peptide (Peptide-2, SEQ ID NO: 48) and pT212-tau peptide (Peptide-8, SEQ ID NO: 54). All experiments were performed at 25° C. using PBST, pH 7.4, (Bio-Rad Cat#176-2720) as both running buffer and sample dilution buffer.
(§5) Fab/peptide binding. Biotinylated peptide was captured on a neutravidin-coated NLC biosensor chip pre-conditioned with PBST, and Fab was flowed over the surface to measure kinetic parameters. Approximately 5-10 RU of peptide was captured on the chip surface by diluting peptide to 10 ng/mL in PBST and injecting over the flow channels at 30 μL/min for 100 s. Serial dilutions of PT3 Fab (1.1 nM to 90 nM) were injected at 60 μL/min for 3 minutes (association phase), followed by 300 s of buffer only (dissociation phase).
(§6) Data were double referenced by subtraction of the interspot response, and the curves generated by the buffer only injection. The chip surface was regenerated with 0.85% phosphoric acid, followed by PBST injection before the next antibody titration injection. Data processing and analysis were performed using instrument software. The data were fit using a simple Langmuir 1:1 binding model.

Peptide-2 [5] = molecular target: T3, Peptide-2; test: SPR ProteOn, peptide captured, Fab as analyte; range of n=2; lower end of n=2 range
Protocol: as §4, §5, §6

Peptide-2 [6] = molecular target: T3, Peptide-2; test: SPR ProteOn, peptide captured, Fab as analyte; range of n=2; upper end of n=2 range
Protocol: as §4, §5, §6

Peptide-2 [7] = molecular target: T3, Peptide-2; test: SPR ProteOn, peptide captured, Fab as analyte; range of n=2
Protocol: as §4, §5, §6

[8] = molecular target: T2, PHF-tau (paired helical filament tau …); test: SPR ProteOn, PHF-tau on chip
[9] = molecular target: T2, PHF-tau (paired helical filament tau …); test: SPR ProteOn, PHF-tau capture-coupled via HT7, 1:1 model; remark: listed apart in the source
Protocol: (§7) Affinity matured monoclonal antibodies were tested for binding to PHF-tau isolated from Alzheimer's disease brain.
(§8) A GLC sensor chip was covalently immobilized with a mouse anti-tau antibody, HT7 (ThermoFisher, catalog# MN1000) using the vendor recommended protocol for amine-coupling chemistry (˜5000 response units, RU). The coupling buffer was 10 mM, pH 4.5 sodium acetate. PHF-tau was prepared by 2-times centrifugation at 5000×g in 5° C. for 10 min. […] After capture-coupling, the surface was activated and deactivated to generate a homogenous PHF-tau surface for antibody binding studies. The anti-tau antibodies and their Fabs (prepared in running buffer, 0.024-75 nM at 5-fold dilutions) were injected at 50 μL/min over the PHF-tau surface to measure binding. The association and dissociation profiles were monitored for 4 minutes and 2 hours, respectively. After dissociation, the sensor chip was regenerated using multiple injections of 10 mM Glycine pH 2.0 and the running buffer. A reference surface (without any PHF-tau) was used to monitor non-specific binding of the injected mAbs or Fabs. HT7 antibody was used as a positive control. The binding sensorgrams for mAbs were fit using a bivalent binding model where the apparent affinity or avidity-driven binding (KD) was reported as the ratio of off-rate and on-rate (koff/kₒₙ). A 1:1 Langmuir binding model was used for kinetics analysis of Fabs.

[10] = molecular target: T2, PHF-tau (paired helical filament tau …); test: SPR ProteOn, PHF-tau capture-coupled via HT7, bivalent model
Protocol: as §2, §3

Peptide-2 [11] = molecular target: T3, Peptide-2; test: SPR ProteOn, mAb captured, peptide as analyte
Protocol: as §4
(§9) Monoclonal antibody/Peptide binding. […] Anti-human IgG was amine-coupled to the chip surface using EDC/NHS, then washed with ethanolamine. Antibodies were diluted to 2 μg/mL in PBST and injected on the surface for 5 min at 30 μL/min to achieve a maximum density of 900-1000 RU. Peptides were injected as analytes at 60 μL/min for 3 min, followed by 5 min dissociation. Peptide-2 was diluted in PBST to generate a three-fold concentration series (0-30 nM) and measured in duplicate. Single measurements of monoclonal antibody binding to Peptide-8 were recorded over the concentration range 0-100 nM.
as §6

Peptide-2 [12] = molecular target: T3, Peptide-2; test: SPR ProteOn, mAb captured, peptide as analyte; range of n=2; upper end of n=2 range
Protocol: as §4, §9, §6

Peptide-2 [13] = molecular target: T3, Peptide-2; test: SPR ProteOn, mAb captured, peptide as analyte; range of n=2
Protocol: as §4, §9, §6

Peptide-2 [14] = molecular target: T3, Peptide-2; test: SPR ProteOn, mAb captured, peptide as analyte; range of n=2; lower end of n=2 range
Protocol: as §4, §9
as §6, with “The data were fit using a simple Langmuir 1:1 binding model.” left out

[15] = molecular target: T2, PHF-tau (paired helical filament tau …); test: SPR ProteOn, PHF-tau capture-coupled via HT7, 1:1 model; upper end of range
Protocol: as §7, §8

[16] = molecular target: T2, PHF-tau (paired helical filament tau …); test: SPR ProteOn, PHF-tau capture-coupled via HT7, 1:1 model; lower end of range
Protocol: as §7, §8

EC50 [1]: 0.341 nM
Kd [2]: 0.167 nM
koff [2]: 0.000136 s⁻¹
kon [2]: 816000 M⁻¹ s⁻¹
EC50 (read off the curve) [3]: ~0.5 nM
Kd (Peptide-2 [4]): 0.305 nM
koff (Peptide-2 [4]): 0.000174 s⁻¹
kon (Peptide-2 [4]): 610000 M⁻¹ s⁻¹
koff (Peptide-2 [5]): 0.000161 s⁻¹
koff (Peptide-2 [6]): 0.000186 s⁻¹
kon (Peptide-2 [6]): 793000 M⁻¹ s⁻¹
Kd (Peptide-2 [7]): 0.234 to 0.376 nM
kon (Peptide-2 [7]): 427000 M⁻¹ s⁻¹
fold slower off-rate than B326 [8]: 1.7 fold
fold stronger affinity (KD) than B326 [8]: 1.3 fold
fold weaker KD than the mouse PT3 parent Fab B187 [8]: 2.5 fold
Kd [9]: 0.0632 nM
koff [9]: 9.03e-05 s⁻¹
kon [9]: 1.43e+06 M⁻¹ s⁻¹
B1: B324 (Fab of B296) (Fab, V domains shown)
VH: QVQLVESGGGVVQPGRSLRLSCAASGFTFSSYAMSWVRQAPGKGLEWVASISKGGNTYYADSVKGRFTISRDNSKNTLYLQMNSLRAEDTAVYYCARGWGDYGWFAYWGQVTLVTVSS
VL: DIQMTQSPSSLSASVGDRVTITCKASQDINRYLNWFQQKPGKAPKSLIYRANRLLDGVPSRFSGSGSGTDFTLTISSLQPEDFATYYCLQYDEFPLTFGQGTKLEIK
notes: also called M324; B296 Fab

Kd [10]: 0.165 nM
koff [10]: 8.06e-05 s⁻¹
kon [10]: 490000 M⁻¹ s⁻¹
Kd (Peptide-2 [11]): 1.79 nM
koff (Peptide-2 [11]): 0.00569 s⁻¹
kon (Peptide-2 [11]): 3.21e+06 M⁻¹ s⁻¹
koff (Peptide-2 [12]): 0.0061 s⁻¹
kon (Peptide-2 [12]): 3.58e+06 M⁻¹ s⁻¹
Kd (Peptide-2 [13]): 1.71 to 1.86 nM
kon (Peptide-2 [13]): 2.84e+06 M⁻¹ s⁻¹
koff (Peptide-2 [14]): 0.00528 s⁻¹
B2: B235 (antibody, human IgG1, V domains shown)
VH: B1 VH with Q1E, V5L, V11L, R16G, A49S, R97K
VL: B1 VL
notes: Humanized (HFA) PT3 variant, human IgG1/kappa; also called VH91/VL77

Kd [15]: 0.0158 nM
koff [15]: 7.36e-05 s⁻¹
kon [15]: 4.66e+06 M⁻¹ s⁻¹
EC50 [1]: 0.107 nM
EC50 (read off the curve) [3]: ~0.2 nM
Kd [16]: 0.0153 nM
koff [16]: 6.94e-05 s⁻¹
kon [16]: 4.53e+06 M⁻¹ s⁻¹
Kd [9]: 0.0156 nM
koff [9]: 7.15e-05 s⁻¹
kon [9]: 4.6e+06 M⁻¹ s⁻¹
B3: B330 (Fab of B711) (Fab, V domains shown)
VH: B1 VH with S30T, S52T, D101I
VL: B1 VL with Y32W
notes: the Fab's constant parts and tag are not described; also called M330; M333 (the Fab of B711)
